These results are taken from PMC10164081 (Structure (London, England : 1993), 2023).

Where no end group is shown, it is not given here.

The target of data set [1] is Gαolf/13 SwII chimeric sensor (human). The data set is described as follows: cell-based or functional assay.
Data set [2] deals with Gαolf/i1 SwII chimeric sensor (human). Description: cell-based or functional assay.
In another data set the target is T1, purified Ric-8A (rat, UniProt Q80ZG1 1-530).
T1 sequence (looked up): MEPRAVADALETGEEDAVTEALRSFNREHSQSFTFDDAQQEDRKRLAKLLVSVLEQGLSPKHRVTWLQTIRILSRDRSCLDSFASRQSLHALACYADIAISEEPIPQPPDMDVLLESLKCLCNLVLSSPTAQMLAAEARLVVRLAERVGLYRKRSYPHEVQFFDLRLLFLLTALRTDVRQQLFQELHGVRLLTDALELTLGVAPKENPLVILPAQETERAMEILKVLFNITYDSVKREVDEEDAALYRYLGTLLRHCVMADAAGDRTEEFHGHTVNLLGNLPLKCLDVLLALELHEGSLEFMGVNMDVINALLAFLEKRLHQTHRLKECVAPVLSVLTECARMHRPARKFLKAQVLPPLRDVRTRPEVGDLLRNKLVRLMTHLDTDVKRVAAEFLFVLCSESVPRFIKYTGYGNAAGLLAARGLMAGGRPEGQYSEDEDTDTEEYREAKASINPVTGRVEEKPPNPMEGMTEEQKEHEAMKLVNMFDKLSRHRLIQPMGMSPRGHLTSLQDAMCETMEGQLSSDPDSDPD
The data set is described as follows: differential scanning fluorimetry.

B1: phosphorylated Ric-8B (natural protein, mouse, UniProt Q80XE1-1 1-560, looked up)
chain: MDEERALYIVRAGEAGAIERVLRDYSDKHRATFKFESADEDKRKKLCEGIFKVLVKEVPTTCQVSCLEVLRILSRDKKILVPVTTKENMQILLRLAKLHESDDSLEKVSEFPVIVESLKCLCNIVFNSQMAQQLSLELNLAAKLCNLLRKCKDRKFINDIKCFDLRLLFVLSLLHTDIRSQLRYELQGLPLLTQILESAFSIKWTDEYESAIDHNGPPLSPQETDCAIEALKALFNVTVDSWKVHKESDSHQFRVMAAVLRHCLLIVGPTEDKTEELHSNAVNLLSNVPVSCLDVLICPLTHEETAQEAATLDELPSDKTTEKDTALKNSTMVYNGMNMEAIHVLLNFMEKRIDKGSSYREGLTPVLSLLTECSRAHRNIRKFLKDQVLPPLRDVTNRPEVGSTVRNKLVRLMTHVDLGVKQIAAEFLFVLCKERVDSLLKYTGYGNAAGLLAARGLLAGGRGDNWYSEDEDTDTEEYKNAKPNINLITGHLEEPMPNPIDEMTEEQKEYEAMKLVNMLDKLSREELLKPMGLKPDGTITPLEEALSQYSVIEETSSDTD
modifications: phosphoserine at 468, phosphothreonine at 473, and additional positions (Table S1)
Turning to B1, the “folding of the Switch II chimeric Gαolf-RLuc sensor (luminescence) by Ric-8B” value in data set [1] was 50 % decrease; in data set [2], 88 % of Gαolf.
In the case of RDVKDTILHDNLKQLMLQ-NH2 [Gα13 C-term amidated peptide], the “maximal thermal shift (ΔTm)” value in the data set with purified Ric-8A turned out to be 3.6 °C.
